The labels stand for the following.
B1: SEQ ID NO 65 (receptor)
chain: MHLPKPTLWAEPGSVITMDQPVTLRCQGGQETQEYRLYRERKTAPWITRIPQELVKKGQFPIPSITWEHAGRYRCYYGSDTSQWSASSDPLELVVTGVYIKPTLSAQPSPVVNSGGNVTLQCDSQVAFDGFILCKEGEDEHPQCLNSQPHARGSSRAIFSVGPVSPSRRWWYRCYAYDSNSPYEWSLPSDLLELDVDG
B2: SEQ ID NO 75 (receptor)
chain: MHLPKPTLWAEPGSVITMDQPVTLRCQGGQETQEYRLYREKKTAPWITRIPQELVKKGQFPIPSITWEHAGRYRCYYGTQTSQWSASSDPLELVVTGVYIKPTLSAQPSPVVNSGGNVTLQCDSQVAFDGFILCKEGEDEHPQCLNSQPHARGSSRAIFSVGPVSPSRRWWYRCYAYDSNSPYEWSLPSDLLELDVDG
B3: SEQ ID NO 70 (receptor)
chain: MHLPKPTLWAEPGSVITLESPVTLRCQGGQETQEYRLYREKKTAPWITRIPQELVKKGQFPIPSITWEHAGRYRCYYGSDTSQWSASSDPLELVVTGVYIKPTLSAQPSPVVNSGGNVTLQCDSQVAFDGFILCKEGEDEHPQCLNSQPHARGSSRAIFSVGPVSPSRRWWYRCYAYDSNSPYEWSLPSDLLELDVDG
B4: SEQ ID NO 77 (receptor)
chain: MHLPKPTLWAEPGSVITMDQPVTLRCQGGQETQEYRLYREKKTAPWITRIPQELVKKGQFPIPSITWEHAGRYRCYYGSDTSQWSASSDPLELVVTGVYIKPTLSAQPSPVVNSGGNVTLQCDSQVAFDGFILCKEGEDEHPQCDNSQPHARGSSRAIFSVGPVSPSRRWWYRCYAYDSNSPYEWSLPSDLLELDVDG
B5: SEQ ID NO 69 (receptor)
chain: MHLPKPTLWAEPGSVITLQSPVTLRCQGGQETQEYRLYREKKTAPWITRIPQELVKKGQFPIPSITWEHAGRYRCYYGSDTSQWSASSDPLELVVTGVYIKPTLSAQPSPVVNSGGNVTLQCDSQVAFDGFILCKEGEDEHPQCLNSQPHARGSSRAIFSVGPVSPSRRWWYRCYAYDSNSPYEWSLPSDLLELDVDG
B6: SEQ ID NO 74 (receptor)
chain: MHLPKPTLWAEPGSVITMDQPVTLRCQGGQETQEYRLYREKKTAPWITRIPQELVKKGQFPIPSITWEHAGRYRCYYGGQEGARSESSDPLELVVTGVYIKPTLSAQPSPVVNSGGNVTLQCDSQVAFDGFILCKEGEDEHPQCLNSQPHARGSSRAIFSVGPVSPSRRWWYRCYAYDSNSPYEWSLPSDLLELDVDG
B7: SEQ ID NO 72 (receptor)
chain: MHLPKPTLWAEPGSVITMDQPVTLRCQGGQETQEYRLYREKKTAPWITRIPQELVKKGQFPIPSITWEHAGRYRCMQYTLTAGRSESSDPLELVVTGVYIKPTLSAQPSPVVNSGGNVTLQCDSQVAFDGFILCKEGEDEHPQCLNSQPHARGSSRAIFSVGPVSPSRRWWYRCYAYDSNSPYEWSLPSDLLELDVDG
B8: SEQ ID NO 66 (receptor)
chain: MHLPKPTLWAEPGSVITLGQPVTLRCQGGQETQEYRLYREKKTAPWITRIPQELVKKGQFPIPSITWEHAGRYRCYYGSDTSQWSASSDPLELVVTGVYIKPTLSAQPSPVVNSGGNVTLQCDSQVAFDGFILCKEGEDEHPQCLNSQPHARGSSRAIFSVGPVSPSRRWWYRCYAYDSNSPYEWSLPSDLLELDVDG
B9: SEQ ID NO 73 (receptor)
chain: MHLPKPTLWAEPGSVITMDQPVTLRCQGGQETQEYRLYREKKTAPWITRIPQELVKKGQFPIPSITWEHAGRYRCVIQRGTAGRSESSDPLELVVTGVYIKPTLSAQPSPVVNSGGNVTLQCDSQVAFDGFILCKEGEDEHPQCLNSQPHARGSSRAIFSVGPVSPSRRWWYRCYAYDSNSPYEWSLPSDLLELDVDG
B10: SEQ ID NO 71 (receptor)
chain: MHLPKPTLWAEPGSVITMDQPVTLRCQGGQETQEYRLYREKKTAPWITRIPQELVKKGQFPIPSITWEHAGRYRCYYGTQTAGRSESSDPLELVVTGVYIKPTLSAQPSPVVNSGGNVTLQCDSQVAFDGFILCKEGEDEHPQCLNSQPHARGSSRAIFSVGPVSPSRRWWYRCYAYDSNSPYEWSLPSDLLELDVDG
B11: SEQ ID NO 67 (receptor)
chain: MHLPKPTLWAEPGSVITLGSPVTLRCQGGQETQEYRLYREKKTAPWITRIPQELVKKGQFPIPSITWEHAGRYRCYYGSDTSQWSASSDPLELVVTGVYIKPTLSAQPSPVVNSGGNVTLQCDSQVAFDGFILCKEGEDEHPQCLNSQPHARGSSRAIFSVGPVSPSRRWWYRCYAYDSNSPYEWSLPSDLLELDVDG
B12: SEQ ID NO 68 (receptor)
chain: MHLPKPTLWAEPGSVITLRSPVTLRCQGGQETQEYRLYREKKTAPWITRIPQELVKKGQFPIPSITWEHAGRYRCYYGSDTSQWSASSDPLELVVTGVYIKPTLSAQPSPVVNSGGNVTLQCDSQVAFDGFILCKEGEDEHPQCLNSQPHARGSSRAIFSVGPVSPSRRWWYRCYAYDSNSPYEWSLPSDLLELDVDG
B13: SEQ ID NO 79 (receptor)
chain: MHLPKPTLWAEPGSVITMDQPVTLRCQGGQETQEYRLYREKKTAPWITRIPQELVKKGQFPIPSITWEHAGRYRCYYGSDTSQWSASSDPLELVVTGVYIKPTLSAQPSPVVNSGGNVTLQCDSQVAFDGFILCKEGEDEHPQCLNSQPHARGSSRAIFSVGPVSPSRRWWYRCYAYDSNSPYEWSDPSDLLELDVDG
B14: SEQ ID NO 78 (receptor)
chain: MHLPKPTLWAEPGSVITMDQPVTLRCQGGQETQEYRLYREKKTAPWITRIPQELVKKGQFPIPSITWEHAGRYRCYYGSDTSQWSASSDPLELVVTGVYIKPTLSAQPSPVVNSGGNVTLQCDSQVAFDGFILCKEGEDEHPQCLNSQPHARGSSRAEFSVGPVSPSRRWWYRCYAYDSNSPYEWSLPSDLLELDVDG
B15: SEQ ID NO 80 (receptor)
chain: MHLPKPTLWAEPGSVITMDQPVTLRCQGGQETQEYRLYREKKTAPWITRIPQELVKKGQFPIPSITWEHAGRYRCYYGSDTSQWSASSDPLELVVTGVYIKPTLSAQPSPVVNSGGNVTLQCDSQVAFDGFILSKEGEDEHPQSLNSQPHARGSSRAIFSVGPVSPSRRWWYRCYAYDSNSPYEWSLPSDLLELDVDG
B16: SEQ ID NO 76 (receptor)
chain: MGHLPKPTLWAEPGSVITMDQPVTLRCQGGQETQQYRLYREKKTAPWITRIPQELVKKGQFPIPSITWEHAGRYRCYYGSDTRQWSASSDPLELVVTGVYIKPTLSAQPSPVVNSGGNVTLQCDSQVAFDGFILCKEGEDDHPQCLNSQPHARGSSRAIFSVGPVSPSRRWRYRCYAYDSNSPYEWSLPSDLLELDVDG
B17: soluble truncated variant of the Wild-Type ILT-2 molecule (extracellular domains D1 and D2) (receptor)
chain: MGHLPKPTLWAEPGSVITQGSPVTLRCQGGQETQEYRLYREKKTAPWITRIPQELVKKGQFPIPSITWEHAGRYRCYYGSDTAGRSESSDPLELVVTGAYIKPTLSAQPSPVVNSGGNVTLQCDSQVAFDGFILCKEGEDEHPQCLNSQPHARGSSRAIFSVGPVSPSRRWWYRCYAYDSNSPYEWSLPSDLLELLVL
notes: also called soluble wild-type ILT-2 polypeptide; soluble two domain form of the wild-type ILT-2

The first test addresses T1, HLA-A*0201 loaded with the Carcinoembryonic antigen (CEA)-derived … peptide (biotinylated on the C-terminal biotinylation tag). Nature of the test: SPR (Biacore), Example 4. Background: SPR reads the build-up and loss of mass on a sensor chip optically.
The term Kd denotes the free concentration of one partner at which half of the binding sites on the other are occupied at equilibrium, for simple one-to-one binding. Low values mean a tighter complex, high ones a looser complex. The koff is the rate constant with which the complex falls apart. In turn, B1 displayed a Kd of no more than 1000 nM and a koff of no more than 2 s⁻¹.

B2: the Kd was no more than 1000 nM and the koff is no more than 2 s⁻¹.

As to B3, the Kd is no more than 1000 nM and the koff was no more than 2 s⁻¹.

Turning to B4, the Kd was no more than 1000 nM and the koff is no more than 2 s⁻¹.

For B5, the Kd is no more than 1000 nM and the off-rate constant (koff) is no more than 2 s⁻¹.

On to B6, for which the Kd was no more than 1000 nM and the koff is no more than 2 s⁻¹.

B7 yielded a Kd of no more than 1000 nM and a koff of no more than 2 s⁻¹.

With B8, the Kd is no more than 1000 nM and the koff was no more than 2 s⁻¹.

On to B9, for which the Kd is no more than 1000 nM and the dissociation rate constant (koff) is no more than 2 s⁻¹.

Regarding B10, the Kd was no more than 1000 nM and the koff is no more than 2 s⁻¹.

As to B11, the Kd was no more than 1000 nM and the dissociation rate constant (koff) was no more than 2 s⁻¹.

On to B12, for which the Kd was no more than 1000 nM and the koff was no more than 2 s⁻¹.

For the molecule B13, the Kd is no more than 1000 nM and the koff is no more than 2 s⁻¹.

Molecule B14 displayed a Kd of no more than 1000 nM and a koff of no more than 2 s⁻¹.

Regarding B15, the Kd is no more than 1000 nM and the koff is no more than 2 s⁻¹.

B16: the dissociation constant Kd was no more than 1000 nM and the off-rate constant (koff) is no more than 2 s⁻¹.

The target in a further test is T1, HLA-A*0201 loaded with the …. Nature of the test: SPR (Biacore), method of Example 4.
As for B17, the koff came to 2.4 s⁻¹.

For another test the target is unchanged. Nature of the test: SPR (Biacore 3000), biotinylated pMHC immobilised on streptavidin.
Molecule B17 showed a Kd of roughly 6000 nM.

The record behind these values is patent US20090208447A1 (MEDIGENE, published 2009).
